Here are results for twelve molecules from paper PMC2853123.

What all share (assay): EMSA
For orientation: In EMSA bound probe runs differently from free probe, usually more slowly.

Data set [1] has as its target T1, MBNL1 (GST-MBNL1 1-260) (UniProt Q9NR56 1-260).
T1 sequence: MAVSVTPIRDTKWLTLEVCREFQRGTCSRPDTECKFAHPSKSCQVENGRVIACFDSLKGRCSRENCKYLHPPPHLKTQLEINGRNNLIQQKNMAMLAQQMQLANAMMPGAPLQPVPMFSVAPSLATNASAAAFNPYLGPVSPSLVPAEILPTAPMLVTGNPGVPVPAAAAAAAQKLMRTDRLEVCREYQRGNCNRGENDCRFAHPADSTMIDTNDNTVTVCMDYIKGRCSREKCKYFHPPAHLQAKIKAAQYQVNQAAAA

For data set [2], the target named is T1, MBNL1 (GST-MBNL1 1-260). This is another data set of the same source.
In data set [3] the target is T1, MBNL1 (GST-MBNL1 1-260). This is another data set of the same source.
Data set [4] addresses T1, MBNL1 (GST-MBNL1 1-260). This is another data set of the same source.
Data set [5] concerns the target T1, MBNL1 (GST-MBNL1 1-260). The source holds these as a separate data set.

Like-named read-outs stand apart in the source and are kept apart here.

B1: TNNT2 32mer (ssRNA)
RNA: CCUGUCUCGCUUUUCCCCUCCGCUGCGGCCAC
In the case of B1, the affinity in the data set with MBNL1 (GST-MBNL1 1-260) [1], expressed as Kd, was 20 nM.

B2: MBNL1 site #2 (ssRNA)
RNA: CCUUUAUUGUGCAUGCUUAGUCUUGUUAUUCGUUGUAUAU
In the data set with MBNL1 (GST-MBNL1 1-260) [1], B2 gave a Kd of 45 nM.

B3: ATP2A1 (ssRNA)
RNA: UGCCACUGCUGCUGCUGCGCUUCCAGUCAGGGUGGGCCGC
B3 yielded a Kd in the data set with MBNL1 (GST-MBNL1 1-260) [1] of 15 nM. This Kd is about 3-fold lower than that of the molecule before.

B4: A04 32mer (ssRNA)
RNA: CCUGCUUCGCUUCUGCAUUGUUCGGCCGGUUG
With B4, the affinity with MBNL1 (GST-MBNL1 1-260) [1], expressed as Kd, was 180 nM.

B5: B07 32mer (ssRNA)
RNA: UGUUCCUCGCUUUUCGCCUCCGCUUCCGCCGC
With B5, in the data set with MBNL1 (GST-MBNL1 1-260) [1], the Kd was 0.66 nM.

B6: H01 CA1-2 (ssRNA)
RNA: GGGAAUGGAUCCACAUCUACGAAUUCCCUCAUUUCAUAUUGCGCUGCAAUUCCUGUUCAAGACUCGAUACGUGACGAACCU
Turning to B6, the binding signal with MBNL1 (GST-MBNL1 1-260) [2] was 12 fold lower affinity than H01.

B7: INSR (ssRNA)
RNA: GCGGCGGGCAGCUGUGCUGGAGAGCAGAUGCUUCACCAAU
Regarding B7, in the data set with MBNL1 (GST-MBNL1 1-260) [1], the affinity, expressed as Kd, was 120 nM.

B8: F06 32mer (ssRNA)
RNA: CCGAUCCCGCUUAUGCCAUCCGCUGCAGUCAC
Turning to B8, the binding result in the data set with MBNL1 (GST-MBNL1 1-260) [3] is “binds”.

B9: GRIN1 (ssRNA)
RNA: GCCGAGGAGGUGGUGUGAUUGCUUUAGCGCCGUCAUUUUC
In turn, B9 gave a Kd with MBNL1 (GST-MBNL1 1-260) [1] of 280 nM.

B10: F06 UCCA 81mer (ssRNA)
RNA: GGGAAUGGAUCCACAUCUACGAAUUCCCGAUCCUCCAUAUGCCAUCCGCUGCAGUCACAAGACUCGAUACGUGACGAACCU
In the case of B10, the binding signal in the data set with MBNL1 (GST-MBNL1 1-260) [4] is 140 fold lower affinity than F06.

B11: (CUGCUU)6 (SELEX motif 1) (ssRNA)
RNA: CUGCUUCUGCUUCUGCUUCUGCUUCUGCUUCUGCUU
With B11, in the data set with MBNL1 (GST-MBNL1 1-260) [5], the binding result was “binds”.

B12: TNNT2 81mer template (ssRNA)
RNA: GGGAAUGGAUCCACAUCUACGAAUUCCCUGUCUCGCUUUUCCCCUCCGCUGCGGCCACAAGACUCGAUACGUGACGAACCU
Turning to B12, the Kd with MBNL1 (GST-MBNL1 1-260) [1] stood at 30 nM.

For orientation: Kd means the free concentration of one partner at which half of the binding sites on the other are occupied at equilibrium, for simple one-to-one binding.
